{"source": "paper PMC10776578", "about": "“Epstein-Barr virus-driven B cell lymphoma mediated by a direct LMP1-TRAF6 complex” (Nature Communications, 2024)", "key": {"His-TRAF6_(310-522)": {"target": "T1, His-TRAF6_(310-522) (human, UniProt Q9Y4K3 310-522)", "T1 construct": "also called His-T6; recombinant TRAF6 wild-type; source: E. coli BL21 Codon Plus RIPL, purified (Ni-NTA)", "T1 sequence": "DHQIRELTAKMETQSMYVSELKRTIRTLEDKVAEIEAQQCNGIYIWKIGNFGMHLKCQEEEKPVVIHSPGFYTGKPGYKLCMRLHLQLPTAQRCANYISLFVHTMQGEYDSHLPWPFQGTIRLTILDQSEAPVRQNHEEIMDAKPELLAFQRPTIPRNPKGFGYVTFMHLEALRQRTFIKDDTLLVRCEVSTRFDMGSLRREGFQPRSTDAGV", "test": "AlphaScreen or HTRF; AlphaScreen PPI assay: His-TRAF and GST-LMP1, GST-CD40 or GST-RANK in PBS with 0.5% BSA and 0.1% Tween-20, 1 h at RT; standard 300 nM His-TRAF and 100 nM GST protein if not indicated otherwise; for KD His-TRAF6 at different concentrations, fit one site-specific binding with hill slope", "settings": "both partners purified"}, "HA-LMP1": {"test_system": "HA-LMP1", "test": "Confocal immunofluorescence colocalization of Flag-TRAF6 with HA-LMP1 in HeLa cells", "type": "cell-based, Epstein-Barr virus", "settings": "mean of ten cells", "procedure": "HeLa cells were seeded onto cover glasses (Thermo Scientific, Menzel) in 24-well plates one day before transfection. Cells were transfected at 50–60% confluency with 50 ng of pCMV-HA-LMP1 plasmids and 100 ng of pRK5-Flag-TRAF6 plasmids, adjusted to a total of 500 ng DNA per sample with pRK5 empty vector, using Lipofectamine 2000 (Thermo Fisher Scientific) according to the manufacturer’s instructions. At 24 h posttransfection, cells were washed once with PBS and fixed with 4% paraformaldehyde (Sigma-Aldrich) for 20 min at RT, followed by permeabilization with 0.3% (v/v) Triton X-100 and blocking with 5% (v/v) FBS in PBS for 1 h at RT. For immunostaining, the cells were incubated overnight with the primary antibodies α-HA (1:1000, clone 16B12, BioLegend) and α-DYKDDDDK (1:1000, clone L5, BioLegend) at 4 °C. The secondary antibodies goat α-mouse Alexa 488 (1:500, cross-adsorbed, Invitrogen, #A-11029) and goat α-rat Alexa 555 (1:500, cross-adsorbed, Invitrogen, #A-21434) were added for 1.5 h at RT. Microscope slides were sealed with cover glasses using Mowiol mounting medium (Sigma-Aldrich). Nuclei were stained with Hoechst 33258 (Sigma-Aldrich). All samples were imaged using a Leica TCS SP5 confocal microscope with 405 nm, 488 nm, 543 nm or 633 nm laser lines, scanning each channel separately under image capture conditions that eliminated channel overlap. For each single experiment, 10 transfected cells positive for both constructs were randomly captured as single-cell images for quantification. The resulting images were then analyzed using the Leica TCS SP5 colocalization analyses application (LAS AF Version 2.7.3.9723). Analysis was performed with default parameters."}}}
{"molecule": "GST-LMP1_(181-386) L382A (domain or fragment, source: E. coli DH5α or BL21 Codon Plus RIPL, purified (glutathione Sepharose 4B)) LIWMYYHGQRHSDEHHHDDSLPHPQQATDDSGHESDSNSNEGRHHLLVSGAGDGPPLCSQNLGAPGGGPDNGPQDPDNTDDNGPQDPDNTDDNGPHDPLPQDPDNTDDNGPQDPDNTDDNGPHDPLPHSPSDSAGNDGGPPQLTEEVENKGGDQGPPLMTDGGGGHSHDSGHGGGDPHLPTLLLGSSGSGGDDDDPHGPVQASYYD", "values": [{"measurement": "binding result", "setting": "His-TRAF6_(310-522)", "result": "binds"}]}
{"molecule": "GGGPYAQGEDARMLSLVSKTEIEEDSFRQMPTEDEYMDRPSQ (domain or fragment, also called TRANCE receptor; source: E. coli DH5α or BL21 Codon Plus RIPL, purified (glutathione Sepharose 4B))", "note": "[GST-RANK_(314-355)]", "values": [{"measurement": "Kd", "setting": "His-TRAF6_(310-522)", "result": 7.7, "unit": "nM"}]}
{"molecule": "GST-LMP1_(181-386) Q381E (domain or fragment, also called LMP1 Q381E; source: E. coli DH5α or BL21 Codon Plus RIPL, purified (glutathione Sepharose 4B)) LIWMYYHGQRHSDEHHHDDSLPHPQQATDDSGHESDSNSNEGRHHLLVSGAGDGPPLCSQNLGAPGGGPDNGPQDPDNTDDNGPQDPDNTDDNGPHDPLPQDPDNTDDNGPQDPDNTDDNGPHDPLPHSPSDSAGNDGGPPQLTEEVENKGGDQGPPLMTDGGGGHSHDSGHGGGDPHLPTLLLGSSGSGGDDDDPHGPVELSYYD", "values": [{"measurement": "Kd", "setting": "His-TRAF6_(310-522)", "result": 14.7, "unit": "nM"}]}
{"molecule": "GST-LMP1_(181-386) Y384F (domain or fragment, also called LMP1 Y384F; source: E. coli DH5α or BL21 Codon Plus RIPL, purified (glutathione Sepharose 4B)) LIWMYYHGQRHSDEHHHDDSLPHPQQATDDSGHESDSNSNEGRHHLLVSGAGDGPPLCSQNLGAPGGGPDNGPQDPDNTDDNGPQDPDNTDDNGPHDPLPQDPDNTDDNGPQDPDNTDDNGPHDPLPHSPSDSAGNDGGPPQLTEEVENKGGDQGPPLMTDGGGGHSHDSGHGGGDPHLPTLLLGSSGSGGDDDDPHGPVQLSFYD", "values": [{"measurement": "binding result", "setting": "His-TRAF6_(310-522)", "result": "binds"}]}
{"molecule": "GST-LMP1_(181-386) S383A (domain or fragment, source: E. coli DH5α or BL21 Codon Plus RIPL, purified (glutathione Sepharose 4B)) LIWMYYHGQRHSDEHHHDDSLPHPQQATDDSGHESDSNSNEGRHHLLVSGAGDGPPLCSQNLGAPGGGPDNGPQDPDNTDDNGPQDPDNTDDNGPHDPLPQDPDNTDDNGPQDPDNTDDNGPHDPLPHSPSDSAGNDGGPPQLTEEVENKGGDQGPPLMTDGGGGHSHDSGHGGGDPHLPTLLLGSSGSGGDDDDPHGPVQLAYYD", "values": [{"measurement": "binding result", "setting": "His-TRAF6_(310-522)", "result": "binds"}]}
{"molecule": "GST-LMP1_(181-386) Y385A (domain or fragment, also called mutation of Y385 (alanine scan); source: E. coli DH5α or BL21 Codon Plus RIPL, purified (glutathione Sepharose 4B)) LIWMYYHGQRHSDEHHHDDSLPHPQQATDDSGHESDSNSNEGRHHLLVSGAGDGPPLCSQNLGAPGGGPDNGPQDPDNTDDNGPQDPDNTDDNGPHDPLPQDPDNTDDNGPQDPDNTDDNGPHDPLPHSPSDSAGNDGGPPQLTEEVENKGGDQGPPLMTDGGGGHSHDSGHGGGDPHLPTLLLGSSGSGGDDDDPHGPVQLSYAD", "values": [{"measurement": "binding result", "setting": "His-TRAF6_(310-522)", "result": "binds"}]}
{"molecule": "371-T6wt: TRAF6 wild-type coexpressed with LMP1Δ371-386 (protein, UniProt Q9Y4K3 1-522, looked up) TNF receptor-associated …: MSLLNCENSCGSSQSESDCCVAMASSCSAVTKDDSVGGTASTGNLSSSFMEEIQGYDVEFDPPLESKYECPICLMALREAVQTPCGHRFCKACIIKSIRDAGHKCPVDNEILLENQLFPDNFAKREILSLMVKCPNEGCLHKMELRHLEDHQAHCEFALMDCPQCQRPFQKFHINIHILKDCPRRQVSCDNCAASMAFEDKEIHDQNCPLANVICEYCNTILIREQMPNHYDLDCPTAPIPCTFSTFGCHEKMQRNHLARHLQENTQSHMRMLAQAVHSLSVIPDSGYISEVRNFQETIHQLEGRLVRQDHQIRELTAKMETQSMYVSELKRTIRTLEDKVAEIEAQQCNGIYIWKIGNFGMHLKCQEEEKPVVIHSPGFYTGKPGYKLCMRLHLQLPTAQRCANYISLFVHTMQGEYDSHLPWPFQGTIRLTILDQSEAPVRQNHEEIMDAKPELLAFQRPTIPRNPKGFGYVTFMHLEALRQRTFIKDDTLLVRCEVSTRFDMGSLRREGFQPRSTDAGV", "values": [{"measurement": "colocalization of TRAF6 with LMP1, mean", "setting": "HA-LMP1", "result": 32.37}]}
